{"source": "patent US20140004106A1", "binders": {"B1": {"name": "Lead CXCR5 Antibody (humanized IgG4 anti-CXCR5 antibody) (antibody, V domains shown)", "VH": "QVQLKESGPGLVAPSESLSITCTVSGFSLIDYGVNWIRQPPGKGLEWLGVIWGDGTTYYNPSLKSRLSISKDNSKSQVFLKVTSLTTDDTAMYYCARIVYWGQGTLVTVSA", "VL": "DIVMTQAAPSVAVTPGASVSISCRSSKSLLHSSGKTYLYWFLQRPGQSPQLLIYRLSSLASGVPDRFSGSGSGTAFTLRISRVEAEDVGVYYCMQHLEYPYTFGGGTKLEIKR"}}, "key": {"[1]": {"target": "28mer peptide of the CXCR5 antigen", "assay": "Antigen-ELISA; histidine 10 mM prototype D, T0"}, "[2]": {"target": "28mer peptide of the CXCR5 antigen", "assay": "Antigen-ELISA; Arginine 10 mM pH 8, T0"}, "[3]": {"target": "28mer peptide of the CXCR5 antigen", "assay": "Potency (Antigen ELISA); stored +5°C, 9 months"}, "[4]": {"target": "28mer peptide of the CXCR5 antigen", "assay": "Antigen-ELISA; Histidine 10 mM pH 6.5, after 1 week at +40°C"}, "[5]": {"target": "28mer peptide of the CXCR5 antigen", "assay": "Antigen-ELISA; acetate 10 mM prototype A, T0"}, "[6]": {"target": "28mer peptide of the CXCR5 antigen", "assay": "Antigen-ELISA; standard run with LA_09_004_10"}, "[7]": {"target": "28mer peptide of the CXCR5 antigen", "assay": "Antigen-ELISA; standard run with LA_09_27A, T0"}, "[8]": {"target": "28mer peptide of the CXCR5 antigen", "assay": "Antigen-ELISA; standard run with LA 09_004_9"}, "[9]": {"target": "28mer peptide of the CXCR5 antigen", "assay": "Antigen-ELISA; PBS 155 mM, polyethylene low density, 24 h +40°C"}, "[10]": {"target": "28mer peptide of the CXCR5 antigen", "assay": "Antigen-ELISA; standard run with LA_09_27D, T0"}, "[11]": {"target": "28mer peptide of the CXCR5 antigen", "assay": "Antigen-ELISA; PB 5 mM pH 7.50, after 1 week at +40°C"}, "[12]": {"target": "28mer peptide of the CXCR5 antigen", "assay": "Antigen-ELISA; Citrate 10 mM pH 5.50, T0"}, "[13]": {"target": "28mer peptide of the CXCR5 antigen", "assay": "Antigen-ELISA; Arginine 10 mM pH 6, after 1 week at +40°C"}, "[14]": {"target": "28mer peptide of the CXCR5 antigen", "assay": "Antigen-ELISA; PBS 155 mM, 1 h purged with air, 24 h"}, "[15]": {"target": "28mer peptide of the CXCR5 antigen", "assay": "Potency (Antigen ELISA); stored +5°C, 15 months"}, "[16]": {"target": "28mer peptide of the CXCR5 antigen", "assay": "Antigen-ELISA; Saline 150 mM pH 6.00, after 1 week at +40°C"}, "[17]": {"target": "28mer peptide of the CXCR5 antigen", "assay": "Antigen-ELISA; TRIS 10 mM pH 8.5, after 1 week at +40°C"}, "[18]": {"target": "28mer peptide of the CXCR5 antigen", "assay": "Antigen-ELISA; Histidine 10 mM pH 6, after 1 week at +40°C"}, "[19]": {"target": "28mer peptide of the CXCR5 antigen", "assay": "Potency (Antigen ELISA); stored -20°C, 1 month"}, "[20]": {"target": "28mer peptide of the CXCR5 antigen", "assay": "Antigen-ELISA; Histidine 10 mM pH 6.5, T0"}, "[21]": {"target": "28mer peptide of the CXCR5 antigen", "assay": "Antigen-ELISA; standard run with LA_09_004_2"}, "[22]": {"target": "28mer peptide of the CXCR5 antigen", "assay": "ELISA potency (binding); 100 mg/mL, Glycine (20), T zero"}, "[23]": {"target": "28mer peptide of the CXCR5 antigen", "assay": "Potency (Antigen ELISA); stored +5°C, 3 months"}, "[24]": {"target": "28mer peptide of the CXCR5 antigen", "assay": "Antigen-ELISA; PBS 155 mM, clear glass type I + V2A piece, 24 h"}, "[25]": {"target": "28mer peptide of the CXCR5 antigen", "assay": "Antigen-ELISA; Glycine 10 mM pH 7, after 1 week at +40°C"}, "[26]": {"target": "28mer peptide of the CXCR5 antigen", "assay": "Antigen-ELISA; PBS 155 mM, clear glass type I as T0, 24 h"}, "[27]": {"target": "28mer peptide of the CXCR5 antigen", "assay": "ELISA potency (binding); 100 mg/mL, Trehalose (60) + NaCl (2), 7 days at 40°C"}, "[28]": {"target": "28mer peptide of the CXCR5 antigen", "assay": "Antigen-ELISA; PB 10 mM pH 6.50, after 1 week at +40°C"}, "[29]": {"target": "28mer peptide of the CXCR5 antigen", "assay": "Antigen-ELISA; Citrate 10 mM pH 7.00, after mechanical stress 350 rpm 2.5 h"}, "[30]": {"target": "28mer peptide of the CXCR5 antigen", "assay": "Antigen-ELISA; PBS 155 mM, polyethylene high density, 24 h +40°C"}, "[31]": {"target": "28mer peptide of the CXCR5 antigen", "assay": "Antigen-ELISA; PB 10 mM pH 7.50, after 1 week at +40°C"}, "[32]": {"target": "28mer peptide of the CXCR5 antigen", "assay": "Antigen-ELISA; Succinate 10 mM pH 6.00, T0"}, "[33]": {"target": "28mer peptide of the CXCR5 antigen", "assay": "Antigen-ELISA; PB 10 mM pH 7.00, after 1 week at +40°C"}, "[34]": {"target": "28mer peptide of the CXCR5 antigen", "assay": "Ag-ELISA; DS in PBS, -20°C, 3 months"}, "[35]": {"target": "28mer peptide of the CXCR5 antigen", "assay": "Antigen-ELISA; standard run with LA_09_004_3"}, "[36]": {"target": "28mer peptide of the CXCR5 antigen", "assay": "Antigen-ELISA; Saline 150 mM pH 6.00, T0"}, "[37]": {"target": "28mer peptide of the CXCR5 antigen", "assay": "Antigen-ELISA; PB 5 mM pH 6.50, after 1 week at +40°C"}, "[38]": {"target": "28mer peptide of the CXCR5 antigen", "assay": "Antigen-ELISA; standard run with LA_09_004_8"}, "[39]": {"target": "28mer peptide of the CXCR5 antigen", "assay": "Antigen-ELISA; PBS 155 mM, 1 h purged with N2, 24 h"}, "[40]": {"target": "28mer peptide of the CXCR5 antigen", "assay": "Antigen-ELISA; PBS 155 mM, polypropylene, 24 h +40°C"}, "[41]": {"target": "28mer peptide of the CXCR5 antigen", "assay": "Antigen-ELISA; citrate 10 mM prototype D, T0"}, "[42]": {"target": "28mer peptide of the CXCR5 antigen", "assay": "Antigen-ELISA; standard run with LA_09_004_7"}, "[43]": {"target": "28mer peptide of the CXCR5 antigen", "assay": "Antigen-ELISA; Citrate 10 mM pH 5.00, T0"}, "[44]": {"target": "28mer peptide of the CXCR5 antigen", "assay": "ELISA potency (binding); 100 mg/mL, Trehalose (60) + NaCl (2), T zero"}}, "data": [{"binder": "B1", "values": [{"measurement": "EC50 %", "setting": "[1]", "result": 169, "unit": "%"}, {"measurement": "EC50 %", "setting": "[2]", "result": 121, "unit": "%"}, {"measurement": "EC50 value (in comparison to reference)", "setting": "[3]", "result": 92, "unit": "%"}, {"measurement": "EC50 %", "setting": "[4]", "result": 175, "unit": "%"}, {"measurement": "EC50 %", "setting": "[5]", "result": 112, "unit": "%"}, {"measurement": "EC50 %", "setting": "[6]", "result": 100, "unit": "%"}, {"measurement": "EC50 %", "setting": "[7]", "result": 100, "unit": "%"}, {"measurement": "EC50 %", "setting": "[8]", "result": 100, "unit": "%"}, {"measurement": "EC50 %", "setting": "[9]", "result": 104, "unit": "%"}, {"measurement": "EC50 %", "setting": "[10]", "result": 100, "unit": "%"}, {"measurement": "EC50 %", "setting": "[11]", "result": 141, "unit": "%"}, {"measurement": "EC50 %", "setting": "[12]", "result": 112, "unit": "%"}, {"measurement": "EC50 %", "setting": "[13]", "result": 99, "unit": "%"}, {"measurement": "EC50 %", "setting": "[14]", "result": 84.3, "unit": "%"}, {"measurement": "EC50 value (in comparison to reference)", "setting": "[15]", "result": 114, "unit": "%"}, {"measurement": "EC50 %", "setting": "[16]", "result": 80.9, "unit": "%"}, {"measurement": "EC50 %", "setting": "[17]", "result": 237, "unit": "%"}, {"measurement": "EC50 %", "setting": "[18]", "result": 77, "unit": "%"}, {"measurement": "EC50 value (in comparison to reference)", "setting": "[19]", "result": 107, "unit": "%"}, {"measurement": "EC50 %", "setting": "[20]", "result": 110, "unit": "%"}, {"measurement": "EC50 %", "setting": "[21]", "result": 100, "unit": "%"}, {"measurement": "rel. potency [%]", "setting": "[22]", "result": 170, "unit": "%"}, {"measurement": "EC50 value (in comparison to reference)", "setting": "[23]", "result": 95, "unit": "%"}, {"measurement": "EC50 %", "setting": "[24]", "result": 80.8, "unit": "%"}, {"measurement": "EC50 %", "setting": "[25]", "result": 65, "unit": "%"}, {"measurement": "EC50 %", "setting": "[26]", "result": 62.3, "unit": "%"}, {"measurement": "rel. potency [%]", "setting": "[27]", "result": 191, "unit": "%"}, {"measurement": "EC50 %", "setting": "[28]", "result": 78.8, "unit": "%"}, {"measurement": "EC50 %", "setting": "[29]", "result": 101, "unit": "%"}, {"measurement": "EC50 %", "setting": "[30]", "result": 157, "unit": "%"}, {"measurement": "EC50 %", "setting": "[31]", "result": 68, "unit": "%"}, {"measurement": "EC50 %", "setting": "[32]", "result": 112, "unit": "%"}, {"measurement": "EC50 %", "setting": "[33]", "result": 109, "unit": "%"}, {"measurement": "EC50 %", "setting": "[34]", "result": 93, "unit": "%"}, {"measurement": "EC50 %", "setting": "[35]", "result": 100, "unit": "%"}, {"measurement": "EC50 %", "setting": "[36]", "result": 96.2, "unit": "%"}, {"measurement": "EC50 %", "setting": "[37]", "result": 77, "unit": "%"}, {"measurement": "EC50 %", "setting": "[38]", "result": 100, "unit": "%"}, {"measurement": "EC50 %", "setting": "[39]", "result": 89.3, "unit": "%"}, {"measurement": "EC50 %", "setting": "[40]", "result": 107, "unit": "%"}, {"measurement": "EC50 %", "setting": "[41]", "result": 94, "unit": "%"}, {"measurement": "EC50 %", "setting": "[42]", "result": 100, "unit": "%"}, {"measurement": "EC50 %", "setting": "[43]", "result": 79, "unit": "%"}, {"measurement": "rel. potency [%]", "setting": "[44]", "result": 110, "unit": "%"}]}]}
